Test results published in FireProtDB (doi:10.1021/bi00416a052).

B1: Ribonuclease HI, P0A7Y4 (parent)
chain: MLKQVEIFTDGSCLGNPGPGGYGAILRYRGREKTFSAGYTRTTNNRMELMAAIVALEALKEHCEVILSTDSQYVRQGITQWIHNWKKRGWKTADKKPVKNVDLWQRLDAALGQHQIKWEWVKGHAGHPENERCDELARAAAMNPTLEDTGYQVEV

Variants of: B1
Conditions: Escherichia coli (strain K12), Thermal, CD, NaCl 0.1 M, reversible: yes, structure 2RN2, whole UniProt chain shown
[1] = pH 3, 49.8 °C, glycine-HCl 10 mM
[2] = pH 5.5, 52 °C, Sodium acetate 20 mM

Variant | ddG of mutation (higher = less stable) [1] [kcal/mol] | Tm (pH 3, glycine-HCl 10 mM) [°C] | change of melting temperature, mutant - wild type (higher = more stable) (pH 3, glycine-HCl 10 mM) [°C] | ddG of mutation (higher = less stable) [2] [kcal/mol] | Tm (pH 5.5, Sodium acetate 20 mM) [°C] | change of melting temperature, mutant - wild type (higher = more stable) (pH 5.5, Sodium acetate 20 mM) [°C]
V74A | 2.2 | 42.2 | -7.6 | 3.4 | 39.3 | -12.7
V74I | -0.7 | 52.2 | 2.4 | -0.6 | 54.1 | 2.1
V74L | -1.1 | 53.5 | 3.7 | -0.9 | 55.3 | 3.3
